In publication PMC9483790:

Target: endogenous pyruvate kinase M2 (PKM2) (human (endogenous in PLC/PRF/5, SMMC-7721, HCCLM3, Huh7)) (UniProt P14618)
Experiment: cross-linking

Chain of endogenous pyruvate kinase M2 (PKM2), P14618 1-531 (enzyme; other documents disagree on this pair) (P14618 whole entry): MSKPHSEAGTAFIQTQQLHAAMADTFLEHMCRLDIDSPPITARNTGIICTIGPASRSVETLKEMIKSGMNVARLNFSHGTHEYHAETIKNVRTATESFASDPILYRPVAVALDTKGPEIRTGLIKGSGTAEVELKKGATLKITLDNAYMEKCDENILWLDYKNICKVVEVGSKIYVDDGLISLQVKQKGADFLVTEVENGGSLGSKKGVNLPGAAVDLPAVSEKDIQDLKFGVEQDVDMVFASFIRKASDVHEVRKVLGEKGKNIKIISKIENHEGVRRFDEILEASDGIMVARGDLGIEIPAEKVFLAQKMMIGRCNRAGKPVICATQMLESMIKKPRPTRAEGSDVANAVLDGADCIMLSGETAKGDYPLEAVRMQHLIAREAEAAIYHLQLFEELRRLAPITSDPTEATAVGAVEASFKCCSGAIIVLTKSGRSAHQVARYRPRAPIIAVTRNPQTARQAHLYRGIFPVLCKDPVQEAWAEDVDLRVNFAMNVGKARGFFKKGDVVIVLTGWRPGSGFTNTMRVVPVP

stoichiometry N: 2
Substance: endogenous pyruvate kinase M2 (PKM2), P14618 1-531 (enzyme; other documents disagree on this pair)
